# Measured values taken from the supplement of paper PMC10724198.
# ± gives the standard deviation of the averaged measurements.
# Tested on: Saccharomyces cerevisiae
# Assay: protein stability index of tFT-peptide fusion (C-terminal peptide) (PSI (0-1 scale)); higher = more stable (slower turnover)
# Settings: genetic background: wild type; temperature: 30 C
# 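Further: PSI is a weighted mean of sequencing reads over stability bins, variants kept only with over 10 reads, mCherry proximal and sfGFP distal, peptide attached via GGGS linker.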
row,Sequence,protein stability index
1,GSGTPRTPCLSH,0.642 ± 0.04
2,NKVRDKTQLKIE,0.78 ± 0.094
3,VLTPLPWSRCSP,0.7017 ± 0.0061
4,VPGFARLFGLLD,0.737 ± 0.047
5,SNAIKTEESKGE,0.734 ± 0.023
6,FLCILTNGCCYQ,0.765 ± 0.052
7,LKRPDVTKKKSI,0.62 ± 0.077
8,GGGTGALGTVRW,0.765 ± 0.055
9,FRLPPRPPLTIP,0.6726 ± 0.0062
10,RRRGTYTYSLLL,0.73 ± 0.014
11,IDPPSLCTPPPP,0.635 ± 0.034
12,DEGLLPLPAVIP,0.746 ± 0.04
13,SISFSLPRPLPP,0.688 ± 0.068
14,SKLTKQQKRTKS,0.665 ± 0.055
15,KMILVGMKKSVV,0.6502 ± 0.0026
16,DRHGLVGGWWAW,0.7459 ± 0.0052
17,GWRGGCRSGVPE,0.665 ± 0.064
18,GRGGTYVVLWGV,0.661 ± 0.1
19,IRNGYVGNYKGN,0.744 ± 0.025
20,NHTLPGTRSSVW,0.684 ± 0.09
21,LYSGLASEIWYT,0.737 ± 0.045
22,DRLCAAPHYGTH,0.599 ± 0.045
23,RKNHPEKKKKPN,0.673 ± 0.024
24,TPKTRPRSRAVK,0.748 ± 0.015
25,VSGGRLVGWGGW,0.731 ± 0.12
26,GVWAVGGGGGGR,0.665 ± 0.069

row,Sequence,protein stability index
1,GLAELKSYDGEG,0.696 ± 0.034
2,TNIITRHNKKDK,0.657 ± 0.078
3,PDPPSPSPFPAP,0.724 ± 0.049
4,PQPHLLRPPPHS,0.674 ± 0.018
5,LPTPVRRPPSPP,0.71 ± 0.028
6,SLNLFFYVNPRF,0.686 ± 0.06
7,ALSEAITLPVNP,0.674 ± 0.085
8,ICLPPVSDVLIR,0.676 ± 0.0084
9,LPPRTHSPLSSP,0.636 ± 0.11
10,IATMSVAGGPRL,0.677 ± 0.015
11,GLSVSGLWGVFG,0.629 ± 0.2
12,PLGFFHKQSATV,0.666 ± 0.023
13,SLFFFLFSPSCL,0.691 ± 0.075
14,LGSSQVGLVRRV,0.663 ± 0.011
15,TAGIIINCPIYL,0.596 ± 0.038
16,SQTIRTGGLCHL,0.886 ± 0.041
17,NKKETRKQKTKK,0.673 ± 0.017
18,TPSIFNRTNGPK,0.738 ± 0.043
19,PSPTRPPAYPRS,0.672 ± 0.11
20,SLYRKTLCMAYS,0.558 ± 0.019
21,LRSPPSLLPLSL,0.7056 ± 0.0033
22,GGLSGGMRIEDS,0.686 ± 0.028
23,RRRSGAPVMRGS,0.645 ± 0.074
24,KIKKNKNKKKKS,0.686 ± 0.009
25,RNRGPAIRVRRK,0.635 ± 0.089
26,PTSVRPPRRRPR,0.745 ± 0.089

row,Sequence,protein stability index
1,TLCFRLGFLSYF,0.604 ± 0.091
2,AGTALVFNGSKA,0.7209 ± 0.0045
3,GGCAGRGGVVVR,0.6904 ± 0.0029
4,IKMKRMTKIKKK,0.745 ± 0.049
5,GNKMYRSREGNC,0.6709 ± 0.003
6,LPPLAPPPPPLP,0.688 ± 0.026
7,IVHIKRVLGNAA,0.636 ± 0.012
8,ASRYPVPLQPHH,0.6982 ± 0.0044
9,SRVVTSRLVLSS,0.606 ± 0.017
10,THPFLRTHPPVE,0.714 ± 0.097
11,RGRWLKNARLSM,0.634 ± 0.065
12,PLPPPFPGSALL,0.727 ± 0.01
13,GWRVVWAVCGHF,0.597 ± 0.092
14,VIDLIYSMKVRR,0.688 ± 0.034
15,PLDAPDTRVWEI,0.738 ± 0.061
16,PHRPCPPPAPPP,0.658 ± 0.0096
17,GCARLPALCCMF,0.694 ± 0.039
18,YVCRCGCLVKSV,0.656 ± 0.043
19,PPLCRSFPPASL,0.791 ± 0.061
20,LFTDIQAPSVKH,0.788 ± 0.18
21,RCCGLWVDGFLL,0.743 ± 0.045
22,PPLPPPLLPFSI,0.747 ± 0.019
23,SPLPLASPFGFP,0.719 ± 0.033
24,GWVNKQVVTEAH,0.728 ± 0.085
25,GGGRGGSTPALG,0.667 ± 0.03
26,IDFISSVLSYLS,0.663 ± 0.013

row,Sequence,protein stability index
1,IEVSRRDLRIHL,0.6949 ± 0.0032
2,EGGVRSRVRSRL,0.863 ± 0.063
3,GWSSSCTATRSA,0.743 ± 0.045
4,PRPLTPDPPRPL,0.693 ± 0.062
5,PHLWSLPHATTA,0.684 ± 0.051
6,LSGLQGPGVSCC,0.642 ± 0.021
7,VPGFCYKERAVV,0.673 ± 0.034
8,GAAGGRGRGTAW,0.619 ± 0.15
9,SFLLGLCHFYGS,0.718 ± 0.04
10,GGCGYGELWAWA,0.7908 ± 0.0038
11,PAHPPPPATPCP,0.6817 ± 0.0063
12,YENFHTRFAVGV,0.504 ± 0.037
13,ITLLYFAGVSVL,0.513 ± 0.0074
14,DGVATLYGRDVE,0.646 ± 0.033
15,NPLDRQNCTCGE,0.656 ± 0.13
16,PSPPSPPPAPPP,0.643 ± 0.1
17,PFSLPPPHLWSI,0.746 ± 0.065
18,GVVGGGEDRWSV,0.738 ± 0.032
19,EQNRINLNRSGL,0.762 ± 0.23
20,VPRAVACDCVLL,0.6845 ± 0.0051
21,LGFLLSLVCLLG,0.532 ± 0.015
22,GGFRDIAYCLVP,0.613 ± 0.0072
23,GGGWGGGGSSCA,0.659 ± 0.055
24,VWLGTGGSYGFC,0.825 ± 0.16
25,MSFFPCVFSGFG,0.738 ± 0.033
26,YTPVKDNDVKVY,0.722 ± 0.077

row,Sequence,protein stability index
1,LPPPSLPGPSAS,0.786 ± 0.059
2,PLLGPSCLRPPS,0.791 ± 0.17
3,LSLLPPLCFPSH,0.8215 ± 0.0043
4,MKNKSTEKNRKF,0.72815 ± 0.00016
5,RRLVGEEGRTHV,0.638 ± 0.05
6,VVDPDVIGREIR,0.706 ± 0.014
7,GGGGGVRLVVSR,0.668 ± 0.027
8,CRRSSRIKHILL,0.603 ± 0.029
9,AAISGELRVWVL,0.642 ± 0.0081
10,CVKKERCDSCRV,0.715 ± 0.07
11,MVELWQPASVFS,0.663 ± 0.033
12,LWGEGAGPEDVG,0.674 ± 0.011
13,LRRPAFCAFTST,0.715 ± 0.024
14,GDARLAIWSLVT,0.512 ± 0.0098
15,VSPDVYGVCLRL,0.703 ± 0.081
16,GVSLLCLFLGSP,0.6212 ± 0.0041
17,ATIYTAATTYHV,0.71342 ± 0.00066
18,AQERDGAIKKTH,0.7 ± 0.033
19,SVRSYYVRSMLE,0.692 ± 0.076
20,SPLHASLPPVSL,0.704 ± 0.025
21,SIVFFLPPVSSS,0.724 ± 0.089
22,PPVSPPPSRHPL,0.719 ± 0.04
23,PSPHHHYTPPST,0.681 ± 0.0073
24,ACLCLPGVRVGG,0.625 ± 0.038
25,RISWLKEATAIK,0.689 ± 0.019
26,ACYEYRPSPASC,0.728 ± 0.053

row,Sequence,protein stability index
1,SIFRVKQGKTNK,0.5732 ± 0.0025
2,EANEENNSSKRD,0.686 ± 0.03
3,GIGGNWAVSRNC,0.73 ± 0.12
4,NSGKPWTLGRQE,0.701 ± 0.043
5,AWGGELGATSGG,0.711 ± 0.0094
6,DSSLSRPGRLLP,0.73 ± 0.012
7,ISYGSGCGIVNH,0.683 ± 0.054
8,ASLLLVFSPPIS,0.703 ± 0.043
9,WFDWLAIAFYLT,0.526 ± 0.014
10,GGCRGDGMMGVG,0.552 ± 0.072
11,STCVRSRTCETP,0.675 ± 0.021
12,LPRLPPPPHPCP,0.741 ± 0.013
13,PHILPTSDSPFP,0.78463 ± 0.00073
14,NRVPKKPAHLQQ,0.647 ± 0.013
15,LSPALSFVLTIW,0.497 ± 0.011
16,AAGTVFCRITWD,0.678 ± 0.022
17,GWSWGGVRTGSC,0.841 ± 0.092
18,WHRAGRSRMSWS,0.777 ± 0.1
19,DCPHGDSPRVVS,0.628 ± 0.046
20,LPVSISIGNVGR,0.627 ± 0.025
21,PPAPSPPPLPAA,0.665 ± 0.031
22,WCVEGRATGRGW,0.674 ± 0.018
23,YDTGSRASWIAF,0.714 ± 0.067
24,GCGFRGVYSCWV,0.678 ± 0.078
25,APVVSFTAPLAF,0.619 ± 0.1
26,PPPRPPPAPLAS,0.705 ± 0.027

row,Sequence,protein stability index
1,HSPILQPSLPHP,0.71 ± 0.022
2,IGFLGYTRSIRN,0.617 ± 0.096
3,VRGLGVIGVCVL,0.741 ± 0.019
4,SSPFPPLTTPSP,0.7245 ± 0.0044
5,FPFFSSIPPRVV,0.574 ± 0.069
6,GSREHYGLFLGH,0.673 ± 0.032
7,RGSVSCLQLIGC,0.651 ± 0.034
8,AEEWPVRAGGRG,0.609 ± 0.056
9,RQVSRLFQGKKN,0.707 ± 0.03
10,GPSPLTMPGSPS,0.683 ± 0.064
11,PAPPSPSPPPPL,0.836 ± 0.14
12,GGWGGGCGACVV,0.72 ± 0.073
13,VVIPLDKGVIVQ,0.56 ± 0.014
14,VNVCIAEYGNDR,0.768 ± 0.062
15,GEIMGEVARREK,0.66 ± 0.048
16,SLGRLKSLRSAR,0.685 ± 0.017
17,FVFSGLSGDFRG,0.649 ± 0.054
18,PPSPRFFPSFPP,0.729 ± 0.021
19,VFRFCCQTGALR,0.671 ± 0.02
20,GAGRGGGRGRRW,0.661 ± 0.031
21,PRIFPDPVFPSL,0.688 ± 0.046
22,IDYCWLPDGYQM,0.683 ± 0.068
23,GLGVVSVWSGGL,0.703 ± 0.044
24,LLPPSHRASPRQ,0.694 ± 0.027
25,GSRWRISYQQVL,0.623 ± 0.037
26,RGGGGRGFAGRK,0.608 ± 0.038

row,Sequence,protein stability index
1,PLLPPPPPLSPP,0.6772 ± 0.0035
2,RVSVFILGWFRD,0.532 ± 0.018
3,DQKFSPYRTPPF,0.667 ± 0.058
4,DLLLGDCGVGWF,0.647 ± 0.056
5,WGKGGWHRRWGC,0.673 ± 0.0098
6,LLAVLSPAAPLP,0.696 ± 0.058
7,YDVGSKAVLTLE,0.566 ± 0.0074
8,PLPPVVPTFSTP,0.684 ± 0.0077
9,PSPPPSSAPYPS,0.609 ± 0.077
10,NQPPFPLRRPPT,0.699 ± 0.048
11,TDGLGGGVVGRE,0.664 ± 0.011
12,LLWVSAPHRYVR,0.642 ± 0.036
13,PPHPLSLSLRPP,0.634 ± 0.034
14,GGVGGGAAEGAV,0.758 ± 0.024
15,EGKGKGRGEVKE,0.6733 ± 0.0064
16,TGRERLAEGDWR,0.692 ± 0.019
17,QPRVEYSSYWAV,0.644 ± 0.034
18,YCRGGGRAKREV,0.693 ± 0.014
19,PTTQVGRRTPLA,0.647 ± 0.029
20,CPPPIPPSRPPS,0.666 ± 0.067
